Measurements reported in article PMC9482650, “Quantitative fragmentomics allow affinity mapping of interactomes” (Nature Communications, 2022).

B1: FZD7, O75084 (peptide)
chain: SHSSKGETAV
B2: HPV82-E6, Q9IR59 (peptide)
chain: PPRQRSETQV
B3: SLC15A5, A6NIM6 (peptide)
chain: SSIDLWETAL

Each binder was assayed against O00233 (assay: holdup assay). Conditions: plain residues with an end cap or a label only (N-terminal biotin on a linker: ttds).
Set-up: key: below the threshold = too weak to quantify, mostly under pKd 3.1 to 4
In the case of B1, the pKd is reported as “below the threshold”. In the case of B2, the pKd is reported as “below the threshold”. In the case of B3, the pKd is reported as “below the threshold”.

These binders were tested against O00560 (assay: holdup assay). Conditions: plain residues with an end cap or a label only (N-terminal biotin on a linker: ttds).
Set-up: key: below the threshold = too weak to quantify, mostly under pKd 3.1 to 4
With B1 the pKd was “below the threshold”. B2 was tested, and the pKd was “below the threshold”. For B3, the pKd was “below the threshold”.

These binders were tested against O15021 (assay: holdup assay). Conditions: plain residues with an end cap or a label only (N-terminal biotin on a linker: ttds).
Set-up: key: below the threshold = too weak to quantify, mostly under pKd 3.1 to 4
In the case of B1, the pKd is reported as “below the threshold”. For B2, the pKd was “below the threshold”. B3 was tested, and the pKd was “below the threshold”.

Each binder was assayed against O43166 (assay: holdup assay). Conditions: plain residues with an end cap or a label only (N-terminal biotin on a linker: ttds).
Set-up: key: below the threshold = too weak to quantify, mostly under pKd 3.1 to 4
For B1, the pKd was “below the threshold”. With B2 the pKd was “below the threshold”. For B3, the pKd was “below the threshold”.

The binders below were run against O60759 (assay: holdup assay). Conditions: plain residues with an end cap or a label only (N-terminal biotin on a linker: ttds).
Set-up: key: below the threshold = too weak to quantify, mostly under pKd 3.1 to 4
B1 was tested, and the pKd was “below the threshold”. In the case of B2, the pKd is reported as “below the threshold”. In the case of B3, the pKd is reported as “below the threshold”.

What follows are binders tested against O75970 (assay: holdup assay). Conditions: plain residues with an end cap or a label only (N-terminal biotin on a linker: ttds).
Set-up: key: below the threshold = too weak to quantify, mostly under pKd 3.1 to 4
For B1, the pKd was “below the threshold”. With B2 the pKd was “below the threshold”. For B3, the pKd was “below the threshold”.

What follows are binders tested against PTPN13_2, Q12923 (assay: holdup assay). Conditions: plain residues with an end cap or a label only (N-terminal biotin on a linker: ttds).
PTPN13_2, Q12923, sequence (Q12923 1363-1462): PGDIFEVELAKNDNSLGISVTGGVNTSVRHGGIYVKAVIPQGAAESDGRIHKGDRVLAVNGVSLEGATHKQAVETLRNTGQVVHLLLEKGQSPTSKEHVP
Set-up: key: below the threshold = too weak to quantify, mostly under pKd 3.1 to 4
For B1, the pKd was “below the threshold”. With B2 the pKd was “below the threshold”.

The binders below were run against Q12923 (assay: holdup assay). Conditions: plain residues with an end cap or a label only (N-terminal biotin on a linker: ttds).
Set-up: key: below the threshold = too weak to quantify, mostly under pKd 3.1 to 4
For B1, the pKd was “below the threshold”. B2 was tested, and the pKd was “below the threshold”. For B3, the pKd was “below the threshold”.

Each binder was assayed against Q13009 (assay: holdup assay). Conditions: plain residues with an end cap or a label only (N-terminal biotin on a linker: ttds).
Set-up: key: below the threshold = too weak to quantify, mostly under pKd 3.1 to 4
In the case of B1, the pKd is reported as “below the threshold”. With B2 the pKd was “below the threshold”. For B3, the pKd was “below the threshold”.

The binders below were run against Q13368 (assay: holdup assay). Conditions: plain residues with an end cap or a label only (N-terminal biotin on a linker: ttds).
Set-up: key: below the threshold = too weak to quantify, mostly under pKd 3.1 to 4
B1 was tested, and the pKd was “below the threshold”. B2 was tested, and the pKd was “below the threshold”. With B3 the pKd was “below the threshold”.

Each binder was assayed against Q5TCQ9 (assay: holdup assay). Conditions: plain residues with an end cap or a label only (N-terminal biotin on a linker: ttds).
Set-up: key: below the threshold = too weak to quantify, mostly under pKd 3.1 to 4
With B1 the pKd was “below the threshold”. With B2 the pKd was “below the threshold”. For B3, the pKd was “below the threshold”.

Each binder was assayed against Q6ZWJ1 (assay: holdup assay). Conditions: plain residues with an end cap or a label only (N-terminal biotin on a linker: ttds).
Set-up: key: below the threshold = too weak to quantify, mostly under pKd 3.1 to 4
In the case of B1, the pKd is reported as “below the threshold”. B2 was tested, and the pKd was “below the threshold”. B3 was tested, and the pKd was “below the threshold”.

The binders below were run against Q8IUC4 (assay: holdup assay). Conditions: plain residues with an end cap or a label only (N-terminal biotin on a linker: ttds).
Set-up: key: below the threshold = too weak to quantify, mostly under pKd 3.1 to 4
With B1 the pKd was “below the threshold”. B2 was tested, and the pKd was “below the threshold”. For B3, the pKd was “below the threshold”.

Each binder was assayed against Q96FS4 (assay: holdup assay). Conditions: plain residues with an end cap or a label only (N-terminal biotin on a linker: ttds).
Set-up: key: below the threshold = too weak to quantify, mostly under pKd 3.1 to 4
In the case of B1, the pKd is reported as “below the threshold”. B2 was tested, and the pKd was “below the threshold”. For B3, the pKd was “below the threshold”.

The binders below were run against Q96HC4 (assay: holdup assay). Conditions: plain residues with an end cap or a label only (N-terminal biotin on a linker: ttds).
Set-up: key: below the threshold = too weak to quantify, mostly under pKd 3.1 to 4
For B1, the pKd was “below the threshold”. In the case of B2, the pKd is reported as “below the threshold”. With B3 the pKd was “below the threshold”.

Each binder was assayed against Q96JB8 (assay: holdup assay). Conditions: plain residues with an end cap or a label only (N-terminal biotin on a linker: ttds).
Set-up: key: below the threshold = too weak to quantify, mostly under pKd 3.1 to 4
B1 was tested, and the pKd was “below the threshold”. In the case of B2, the pKd is reported as “below the threshold”. In the case of B3, the pKd is reported as “below the threshold”.

What follows are binders tested against Q96JY6 (assay: holdup assay). Conditions: plain residues with an end cap or a label only (N-terminal biotin on a linker: ttds).
Set-up: key: below the threshold = too weak to quantify, mostly under pKd 3.1 to 4
In the case of B1, the pKd is reported as “below the threshold”. B2 was tested, and the pKd was “below the threshold”. For B3, the pKd was “below the threshold”.

Each binder was assayed against Q96SB3 (assay: holdup assay). Conditions: plain residues with an end cap or a label only (N-terminal biotin on a linker: ttds).
Set-up: key: below the threshold = too weak to quantify, mostly under pKd 3.1 to 4
B1 was tested, and the pKd was “below the threshold”. With B2 the pKd was “below the threshold”. For B3, the pKd was “below the threshold”.

The binders below were run against Q9C0E4 (assay: holdup assay). Conditions: plain residues with an end cap or a label only (N-terminal biotin on a linker: ttds).
Set-up: key: below the threshold = too weak to quantify, mostly under pKd 3.1 to 4
For B1, the pKd was “below the threshold”. In the case of B2, the pKd is reported as “below the threshold”. For B3, the pKd was “below the threshold”.

The binders below were run against Q9H190 (assay: holdup assay). Conditions: plain residues with an end cap or a label only (N-terminal biotin on a linker: ttds).
Set-up: key: below the threshold = too weak to quantify, mostly under pKd 3.1 to 4
For B1, the pKd was “below the threshold”. For B2, the pKd was “below the threshold”. With B3 the pKd was “below the threshold”.

What follows are binders tested against Q9NPB6 (assay: holdup assay). Conditions: plain residues with an end cap or a label only (N-terminal biotin on a linker: ttds).
Set-up: key: below the threshold = too weak to quantify, mostly under pKd 3.1 to 4
In the case of B1, the pKd is reported as “below the threshold”. For B2, the pKd was “below the threshold”. For B3, the pKd was “below the threshold”.

Each binder was assayed against Q9NR12 (assay: holdup assay). Conditions: plain residues with an end cap or a label only (N-terminal biotin on a linker: ttds).
Set-up: key: below the threshold = too weak to quantify, mostly under pKd 3.1 to 4
In the case of B1, the pKd is reported as “below the threshold”. With B2 the pKd was “below the threshold”. In the case of B3, the pKd is reported as “below the threshold”.

What follows are binders tested against Q9P227 (assay: holdup assay). Conditions: plain residues with an end cap or a label only (N-terminal biotin on a linker: ttds).
Set-up: key: below the threshold = too weak to quantify, mostly under pKd 3.1 to 4
B1 was tested, and the pKd was “below the threshold”. B2 was tested, and the pKd was “below the threshold”. In the case of B3, the pKd is reported as “below the threshold”.

What follows are binders tested against Q9ULJ8 (assay: holdup assay). Conditions: plain residues with an end cap or a label only (N-terminal biotin on a linker: ttds).
Set-up: key: below the threshold = too weak to quantify, mostly under pKd 3.1 to 4
B1 was tested, and the pKd was “below the threshold”. B2 was tested, and the pKd was “below the threshold”. In the case of B3, the pKd is reported as “below the threshold”.

These binders were tested against Q9UMS6 (assay: holdup assay). Conditions: plain residues with an end cap or a label only (N-terminal biotin on a linker: ttds).
Set-up: key: below the threshold = too weak to quantify, mostly under pKd 3.1 to 4
B1 was tested, and the pKd was “below the threshold”. In the case of B2, the pKd is reported as “below the threshold”. For B3, the pKd was “below the threshold”.

What follows are binders tested against Q9Y3R0 (assay: holdup assay). Conditions: plain residues with an end cap or a label only (N-terminal biotin on a linker: ttds).
Set-up: key: below the threshold = too weak to quantify, mostly under pKd 3.1 to 4
In the case of B1, the pKd is reported as “below the threshold”. B2 was tested, and the pKd was “below the threshold”. With B3 the pKd was “below the threshold”.
